Measurements: the nanobody polyreactivity screen of Harvey et al. (2022)

experiment: yeast display, Sf9 membrane polyspecificity reagent, FACS + sequencing; frameworks hold sequencing errors
Method in brief: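 Polyreactivity labels are assigned by the sorting gate from which each nanobody was recovered. The gates were low and high (top ~1%), set on anti-HA fluorescence for expression and streptavidin fluorescence for reagent binding. Before sorting, galactose-induced (36–48 hours) yeast display cells were stained for 1 hour at 4 °C with 10% biotinylated, detergent-solubilized Sf9 membrane reagent.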

Sequence	polyreactivity (PSR sort gate)
QVQLVESGGGLVQAGGSLRLSCAASGSTFKPNVMGWSRLAPGKERELVAAITSTDDPTYYADSVKGRFSISRDNAKNTVYLQMNSLKPEDTAVDYCAVESLRDDFEYDYWGQGTQVTVSS	low polyreactivity
QVQLVESGGGLVQAGGSLRLSCAASGSTFKRYAMAWYREGPGKEMDLVASISRSGCSTYYADSVKGRFTISRDNAKNSVYLQMNSLIPEDTAVYYCASRGFSFSFSYPSYDYWGQGTQVTVSS	high polyreactivity
QVQLVESGGGLVQAGGSLRLSCAASGSTFKRYAMGWYRQAPAKERELVASISSGGSTNYADSVKGRFTISRDNAKNTVYLQMNSLKPEDTAVYYCNAVYYCYKGDYWGQGTQVTVSS	high polyreactivity
QVQLVESGGGLVQAGGSLRLSCAASGSTFKRYAMGWYRQAPGKERELVAAIRRGGITNYADSVKGRFTISRDNAKNTVYLQINSLKPEDTAVYYWAATSIYSNYYREGYWGQGTQVTVSS	low polyreactivity
QVQLVESGGGLVQAGGSLRLSCAASGSTFKRYAMGWYRQAPGKERELVAAISLSSGSTYYADSVKGRFTISRDNAKNTVYLQMNSLKPEDTAVYYCNAAKTYPDVYEYDYWGQGTQVTVSS	high polyreactivity
QVQLVESGGGLVQAGGSLRLSCAASGSTFKRYAMGWYRQAPGKERELVAANSASGGSTSYADSVKGRFTISRDNAKITVYLQMNSLTPEDTAVYYCAPYYWLYSSSYDYWGQGTQVTVSS	high polyreactivity
QVQLVESGGGLVQAGGSLRLSCAASGSTFKTYAMGWYRQAPGKERELVAAITSSGGRTYYADSVKGRFTISRDNAKNTVYLQMNSLKPEDTAVYYCAAVRRSYNQLDYWGQGTQVTVSS	high polyreactivity
QVQLVESGGGLVQAGGSLRLSCAASGSTFKTYTMGWYRQAPGKERELVAGITSGGSTSYADSVKGRFTISRDNAKNTVYLQMNSLKPEDTAVYYCAADTSYDSYEYWGQGTQVTVSS	low polyreactivity
QVQLVESGGGLVQAGGSLRLSCAASGSTFKVNAMGWYRQAPGKERELVAAISRGGSTYADSVKGRFTISRDNAKNTVYFQINSLKPEDTAVYYCAAKSRYFQPDEYYYWGQGTQVTVSS	high polyreactivity
QVQLVESGGGLVQAGGSLRLSCAASGSTFKVYAMGWYRQAPGKERELVATISKSGSTYADSVKGRFTISRDNAKNTVYLQMNSLKPEDTAVYYCAADLYTYPRTRRRAYGYWGQGTQVTVSS	high polyreactivity
QVQLVESGGGLVQAGGSLRLSCAASGSTFKWYTMGWYRQAPGNEREFVAAISSSGGRTYYADSVKGRFTISRDNAKNTDYLQMNCLKPEDTAVYFCAAGYLYQFRAATFGYWGQGTQVTVSS	high polyreactivity
QVQLVESGGGLVQAGGSLRLSCAASGSTFKYYAMGWYRQAPGKERELVAAISSGGSTYYADSVKGRFTISRDNAKNTVYLQMNSLKPEDTAVYYCAARGYYGKFSGSGYWGQGTQVTVSS	high polyreactivity
QVQLVESGGGLVQAGGSLRLSCAASGSTFKYYAMGWYRQAPGKERELVASITSGGSTYYADSVKGRFTISRDNAKNTVYLQMNSLKPEDTAVYYCNKRWITSYYTRYDYWGQGTQVTVSS	high polyreactivity
QVQLVESGGGLVQAGGSLRLSCAASGSTFKYYGMGWYRQAPGKERELVASISSSGTRTYYADSVKGRFTISRDNAKYTVYLQMNSLKPEDTAVYYCAADSYATYFLYDSWGQGTQVTVSS	low polyreactivity
QVQLVESGGGLVQAGGSLRLSCAASGSTFKYYVMGWYRQAPGKERELVAAISGRTGSTYYADSVKGRFTISRDNAKNTVYLQMNSLKPEDTAVYYCAKRGFLYWDHVSGFYRYDYWGQGTQVTVSS	low polyreactivity
QVQLVESGGGLVQAGGSLRLSCAASGSTFLAYTMGWYRQAPEKERELVADNTSNGGSTYYADSVKGRFTISRDNAKNTVYLQMNSLKPEDTAVYYCNTGSGAGITRPDDDFNYWGQGTQVTVSS	low polyreactivity
QVQLVESGGGLVQAGGSLRLSCAASGSTFLDNAMGWYRQAPGKERELVAVITASDTNTNYADSVKGRFTISRDNAKNTVYLQMNRLKPEDTAVYYCNADATYTSYDYWGQGTQVTVSS	low polyreactivity
